Measured values taken from patent US20250027901A1.

Biological target: Maleimide-modified SpyTag peptide (MCA-SpyTag)
Assay: QCMD, nanobody-SpyCatcher coupling to maleimide-SpyTag peptide on HDT SAM

Q: How did the Density per cm^2 turn out when “VHH72-8 aa-spyCatcher-3C cleavage site-His8” was run?
A: The Density per cm^2 was 6.5e+12 per cm^2.

Q: What about the gained mass (ng/cm^2) of the same substance?
A: Its gained mass (ng/cm^2) is 313 ng/cm^2.
